From patent US20100080799

Test system: recombinant H2A.X (WT), N-terminal 6xHis tag

## recombinant N-terminal portion of WSTF (N-WSTF)
  kinase activity (in vitro kinase assay): Only N-WSTF had kinase activity
